The text below walks through data of paper PMC7987339.

The target in this data set is Hfq (Escherichia coli) (UniProt P0A6X3). Put plainly: competition. The settings on record: 10 nM (so in the source) Tris-HCl pH 8.0, 1 mM DTT, 1 mM MgCl2, 20 mM KCl, 10 mM Na phosphate pH 8.0, 12.5 ug/mL yeast tRNA; 15 min at 37 C; native 5% PAGE in 1X TBE ….
Hfq (Escherichia coli), sequence (P0A6X3 whole entry): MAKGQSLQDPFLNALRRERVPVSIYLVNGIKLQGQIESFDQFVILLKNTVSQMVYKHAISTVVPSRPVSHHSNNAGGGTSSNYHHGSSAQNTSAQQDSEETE

With “GGACACCGUCGCUUAAAGUGACGGCAUAAUAAUAAAAAAAUGAAAUUCCUCUUUGACGGGCCAAUAGCGAUAUUGGCCAUUUUUUU [ChiX sRNA]”, the binding result is “binds”.
